Assay results from IntAct's records for PubMed 15361138.

B1: Transcription factor MYB75 (Arabidopsis thaliana (Mouse-ear cress)), Q9FE25 (parent)
chain: MEGSSKGLRKGAWTTEEDSLLRQCINKYGEGKWHQVPVRAGLNRCRKSCRLRWLNYLKPSIKRGKLSSDEVDLLLRLHRLLGNRWSLIAGRLPGRTANDVKNYWNTHLSKKHEPCCKIKMKKRDITPIPTTPALKNNVYKPRPRSFTVNNDCNHLNAPPKVDVNPPCLGLNINNVCDNSIIYNKDKKKDQLVNNLIDGDNMWLEKFLEESQEVDILVPEATTTEKGDTLAFDVDQLWSLFDGETVKFD
partner: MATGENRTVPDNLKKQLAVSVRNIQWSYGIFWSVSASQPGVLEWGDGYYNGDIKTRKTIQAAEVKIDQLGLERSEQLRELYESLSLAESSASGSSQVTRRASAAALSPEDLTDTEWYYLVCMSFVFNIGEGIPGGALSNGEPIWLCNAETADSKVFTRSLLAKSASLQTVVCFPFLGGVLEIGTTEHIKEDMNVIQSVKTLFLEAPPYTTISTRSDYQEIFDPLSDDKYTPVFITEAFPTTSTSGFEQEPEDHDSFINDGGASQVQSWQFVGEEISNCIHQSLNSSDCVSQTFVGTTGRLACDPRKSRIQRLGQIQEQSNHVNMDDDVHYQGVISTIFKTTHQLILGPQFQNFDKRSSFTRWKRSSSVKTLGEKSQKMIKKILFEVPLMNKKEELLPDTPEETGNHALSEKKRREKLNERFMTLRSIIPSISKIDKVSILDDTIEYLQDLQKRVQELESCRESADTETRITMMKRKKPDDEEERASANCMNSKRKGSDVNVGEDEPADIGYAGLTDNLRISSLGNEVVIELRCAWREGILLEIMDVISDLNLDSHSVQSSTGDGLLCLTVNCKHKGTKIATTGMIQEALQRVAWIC

Variants of: B1
Conditions: with egl1_arath BHLH2, Q9CAD0

Variant	effect of a mutation on the interaction
L73I	decreasing interaction
R79S	decreasing interaction
R76K	decreasing interaction
R76E	decreasing interaction
L80A	decreasing interaction
R91A	decreasing interaction
R91D	decreasing interaction
